The target of one assay is T1, LA peptide.
T1 construct: The peptide was coated on the Octet sensor; also called peptide with N-terminal leucine and penultimate alanine
Put plainly: BLI (Octet), peptide on sensor, purified protein in solution. The text has this: (§1) In the high-throughput assay, Octet sensors are coated with the peptide of interest and dipped in buffer containing the purified protein. An approximation of relative binding can be obtained by comparing the response after 200 seconds for each protein. Each protein has approximately the same molecular mass and is used at the same concentration, so ranking the proteins by response level in this assay gives an approximation of which proteins have improved binding. Studying the on and off-rate can also give insight into the mechanism of binding.
A general note: Biolayer interferometry detects binding as a change in optical thickness at a sensor tip.

A further assay deals with T2, AA peptide.
T2 construct: The peptide was coated on the Octet sensor; also called peptide with N-terminal alanine and penultimate alanine
The assay is described as above.
Text: as §1

For a further assay, the target named is T3, VA peptide.
T3 construct: The peptide was coated on the Octet sensor; also called peptide with N-terminal valine and penultimate alanine
The description is as above.
Text: as §1

Assay [1] has as its target T4, MA Peptide (fluorescence polarization).
T4 peptide: MAKLDEESILKQK(FITC)
Put plainly: fluorescence polarization, FITC peptide titrated with protein. For orientation: Polarisation of emitted light reports the rotation of a fluorescent probe.

Assay [2] concerns the target T5, AA Peptide (fluorescence polarization), AAKLDEESILKQ{LYS(FITC)}.
T5 peptide: AAKLDEESILKQK(FITC)
The description is as above.

For assay [3], the target named is T6, HA peptide (XAKLDEESILKQK-FITC, X = H).
T6 construct: also called peptide with N-terminal histidine
T6 peptide: HAKLDEESILKQK(FITC)
Nature of the assay: fluorescence polarization titration, 20 C. As to the method:
(§2) Binding affinity was measured by polarization using a labeled peptide. The polarization response and total intensity measurements were carried out at 20° C. on a microplate fluorometer with 480 nm excitation and 530 nm emission. […] Multiple analyses were performed at increasing recognizer concentration at a fixed concentration of a target peptide to obtain a titration curve. An equilibrium polarization response at each concentration was plotted and fit to calculate the KD.
(§3) Fluorescence polarization assays were performed with all candidates, and single point binding responses were measured at a fixed concentration of the binders (FIG. 13A). […] We carried out multiple polarization binding titration analysis at increasing concentration of binder protein, and the Kds were determined from the titration curves (FIG. 13B).

Assay [4] has as its target T7, RA peptide (XAKLDEESILKQK-FITC, X = R).
T7 construct: also called peptide with N-terminal arginine
T7 peptide: RAKLDEESILKQK(FITC)
Nature of the assay: fluorescence polarization titration, 20 C. As to the method:
as §2, §3

Assay [5] concerns the target T8, RL peptide (Octet assay of PS621 variants).
T8 construct: RXKLDEESILKQK with X = L
T8 peptide: RLKLDEESILKQK
Put plainly: Octet (BLI), 30 C. The source says: (§4) Peptides of the sequence RXKLDEESILKQK (SEQ ID NO: 1076) were also used to evaluate the penultimate residue effect.

Assay [6] addresses T9, RA peptide (Octet assay of PS621 variants).
T9 construct: X… with X = R
Put plainly: Octet (BLI), 30 C.
Text: as §4

For assay [7], the target named is T10, KA peptide (Octet assay of PS621 variants).
T10 construct: XAKLDEESILKQK with X = K
T10 peptide: KAKLDEESILKQK
Put plainly: Octet (BLI), 30 C.

The target in assay [8] is T11, HA peptide (Octet assay of PS621 variants).
T11 construct: XAKLDEESILKQK with X = H
T11 peptide: HAKLDEESILKQK
Nature of the assay: Octet (BLI), 30 C.

Assay [9] has as its target T12, RE peptide (Octet assay of PS621 variants).
T12 construct: RXKLDEESILKQK with X = E
T12 peptide: REKLDEESILKQK
Nature of the assay: Octet (BLI), 30 C.
Text: as §4

Assay [10] addresses T13, RQ peptide (Octet assay of PS621 variants).
T13 construct: RX… with X = Q
Nature of the assay: Octet (BLI), 30 C.
Text: as §4

The target of assay [11] is T14, RS peptide (Octet assay of PS621 variants).
T14 construct: RXKLDEESILKQK with X = S
T14 peptide: RSKLDEESILKQK
Nature of the assay: Octet (BLI), 30 C.
Text: as §4

For assay [12], the target named is T15, RF peptide (Octet assay of PS621 variants).
T15 construct: RX… with X = F
Nature of the assay: Octet (BLI), 30 C.
Text: as §4

Assay [13] deals with T16, RR peptide (Octet assay of PS621 variants).
T16 construct: RX… with X = R
Put plainly: Octet (BLI), 30 C.
Text: as §4

Substitutions are numbered along the chain they refer to. Numbers in names are those of the source. No end group written: not given here. *: point of attachment. FITC = O=C1OC2(c3ccc(O)cc3Oc3cc(O)ccc32)c2ccc(NC(=S)*)cc21

B1: PS809 (designed binder)
chain: MPTAASATESAIEDTPAPARPEVDGRTKPKRQPRYHVVLWNDDDHTYQYVVVMLQSLFGHPPERGYRLAKEMDTQGRVIVLTTTREHAELKRDQIHAFGYDRLLARSKGSMKASIEAEE
notes: Variant of PS557; also called V72M
Regarding B1, the figures for the “Octet response after 200 sec association” value with LA peptide, in the assay with AA peptide and in the assay with VA peptide were 10.8 nm, 0.0226 nm and 7.77 nm, respectively.

B2: PS819 (designed binder)
chain: B1 chain with N41D, E63K
notes: Variant of PS557; also called V72M, N41D, E63K
For B2, the “Octet response after 200 sec association” value stood at 11.1 nm in the assay with LA peptide, 0.519 nm with AA peptide and 7.42 nm with VA peptide.

B3: PS828 (designed binder)
chain: B1 chain with N41D, P62R, M72V, Q75L
notes: Variant of PS557
Take B3: the “Octet response after 200 sec association” value was found to be 7.75 nm with LA peptide, 0.469 nm with AA peptide and 3.24 nm with VA peptide.

B4: PS830 (designed binder)
chain: B1 chain with N41D, P62R, E63K, Q75L
notes: Variant of PS557
For B4, the “Octet response after 200 sec association” value in the assay with LA peptide is 8.54 nm; with AA peptide, 0.215 nm; with VA peptide it was 6.64 nm.

B5: PS847 (designed binder)
chain: B1 chain with N41D, Q55R
notes: Variant of PS557
With B5, the “Octet response after 200 sec association” value came to 9.92 nm with LA peptide, 0.288 nm with AA peptide and 6.68 nm with VA peptide.

B6: PS934 (designed binder)
chain: B1 chain with N41D, P62R, L68M
notes: Variant of PS557; also called N41D, V72M, L68M, P62R
For orientation: Kd means the equilibrium constant for the complex coming apart. As to B6, the results for the Kd in [1] and in [2] were 325 nM and 5330 nM, respectively.

B7: PS968 (designed binder)
chain: B1 chain with Q55R, Y100R
notes: Variant of PS557; also called V72M, Q55R, Y100R
Take B7: the Kd worked out at 395 nM in assay [1] and 5440 nM in [2].

B8: PS1104 (designed binder)
chain: MHSKFSHAGRICGAKFKVGEPIYRCKECSFDDTCVLCVNCFNPKDHRGHHVYTTICTEFNNGICDCGDKEAWNHTLFCKAEEG
notes: PS621 variant
With B8, the values for the Kd in [3] and in [4] were 2850 nM and 260 nM, respectively.

B9: PS1119 (designed binder)
chain: B8 chain with R47T, T57K
notes: Variant of PS621
B9: the Kd was 11400 nM in [3] and 289 nM in assay [4]. The Octet response amounted to 9.6 in assay [5], 8.6 in assay [6], 3.3 in assay [7] and 0.7 in assay [8].

B10: PS1121 (designed binder)
chain: B8 chain with R47K
notes: PS621 variant
B10: the Kd came to 3500 nM in assay [3] and 259 nM in [4].

B11: PS1102 (designed binder)
chain: B8 chain with S29Q, R47T
notes: Variant of PS621
As for B11, the equilibrium dissociation constant (Kd) in assay [4] amounted to 638 nM. In addition, the Octet response is 6.6 in assay [9]; 9.3 in assay [10]; 10.4 in assay [5]; 8.5 in assay [11]; 9.3 in assay [12]; 8.6 in [6]. The results for the Octet response in assay [13], in assay [7] and in [8] were 7, 6.6 and 2.5, respectively.

B12: PS1115 (designed binder)
chain: B8 chain with F59R, T75E
notes: PS621 variant
B12: the Kd in assay [3] is 1920 nM; in [4], 152 nM.

B13: PS1105 (designed binder)
chain: B8 chain with R47T, G48R
notes: Variant of PS621
Consider B13, for which the Octet response in [9] worked out at 2.9; in [10], 5.9; in [5], 7.5; in assay [11], 5.5; in assay [12], 7.2; in assay [6] it was 6.5. The values for the Octet response in assay [13], in [7] and in [8] were 4.4, 2.6 and 0.2, respectively.

B14: PS1120 (designed binder)
chain: B8 chain with R47T, T54K
notes: Variant of PS621
Turning to B14, the Octet response was determined as 8.8 in assay [9]; 9.5 in assay [10]; 11.7 in [5]; 8.3 in assay [11]; 10.2 in assay [12]; 9.9 in [6]. Also, the Octet response in assay [13] was 5.9; in [7], 5.5; in assay [8] it was 1.7.

B15: PS1114 (designed binder)
chain: B8 chain with F59R
notes: PS621 variant
With B15, the Kd in [3] is 2660 nM; in [4], 180 nM.

B16: PS1103 (designed binder)
chain: B8 chain with D32Y, R47T
notes: Variant of PS621
In the case of B16, the Kd in [4] was determined as 787 nM. Further, the Octet response in [5] is 8.4; in [6] it was 6.2; in assay [7] it was 2.9.

B17: PS1107 (designed binder)
chain: B8 chain with R47T, T57R
notes: Variant of PS621
Turning to B17, the Kd was determined as 3830 nM in assay [3] and 298 nM in assay [4]. The Octet response in assay [5] was 8.1; in [6], 7.8; in assay [7], 3.9; in assay [8], 0.6.

B18: PS1104 (designed binder)
chain: B8 chain
notes: Variant of PS621
B18: the Octet response in assay [9] was 7.6; in assay [10], 9.7; in assay [5] it was 11.3; in [11], 8.9; in assay [12], 10.5; in assay [6], 9.4. Further, the Octet response in [13] was determined as 8; in [7], 7.3; in assay [8], 3.4.

B19: PS1118 (designed binder)
chain: B8 chain with R47T, E58K
notes: Variant of PS621
As for B19, the Kd is 6180 nM in [3] and 271 nM in assay [4]. In addition, the Octet response in assay [5] was found to be 10.6; in assay [6] it was 9.8; in [7], 5; in [8], 1.8.

B20: PS1106 (designed binder)
chain: B8 chain with R47T, T53V
notes: PS621 variant
With B20, the equilibrium dissociation constant (Kd) in assay [3] stood at 3440 nM; in [4], 165 nM.

B21: PS1101 (designed binder)
chain: B8 chain with G19R, R47T
notes: Variant of PS621
Regarding B21, the dissociation constant (Kd) in [4] stood at 1550 nM. The Octet response is 1.9 in [9]; 4.7 in assay [10]; 7.7 in assay [5]; 4.3 in [11]; 6 in assay [12]; 6.5 in assay [6]. Besides, the results for the Octet response in assay [13] and in assay [7] were 2.8 and 1.4, respectively.

The values are drawn from patent US20240272170A1 (QUANTUM SI, published 2024).
